Results on 2 molecules are retold here after patent US20160199440A1 (UNIVERSITY OF ROCHESTER, published 2016).

This experiment concerns the target T1, Claudin 1 (endogenous, in 16HBE human bronchial epithelial cells) (human, UniProt O95832 1-211).
T1 sequence (looked up): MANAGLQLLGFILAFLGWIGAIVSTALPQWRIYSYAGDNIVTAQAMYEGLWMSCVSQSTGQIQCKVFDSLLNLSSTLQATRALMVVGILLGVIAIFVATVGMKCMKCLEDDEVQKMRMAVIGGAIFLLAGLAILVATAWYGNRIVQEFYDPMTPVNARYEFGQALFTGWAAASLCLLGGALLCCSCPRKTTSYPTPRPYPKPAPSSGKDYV
Kind of experiment: cell-based or functional assay.

As to H-SILTGVSTLDQSLKQLSNFSQAVSTQSSR-NH2 [Peptide 2a, scrambled peptide], the “enhancement of penetration of labeled Synagis antibody (168 kD), 2.4 µM peptide” value was found to be 4.9 fold; the “enhancement of penetration of labeled Synagis antibody (168 kD), 12 µM peptide” value stood at 5.6 fold; the “increase in FD-40 permeability, 2.4 µM peptide” value came to 25.3 fold; the “increase in FD-40 permeability, 12 µM peptide” value was found to be 30.5 fold. Further, the “increase in fluorescein permeability, 2.4 µM peptide” value is 5.6 fold and the “increase in fluorescein permeability, 12 µM peptide” value was found to be 16.4 fold.

Turning to H-SSVSQSTGQIQSKVFDSLLNLSSTLQATR-NH2 [Peptide 1a, hCldn1 (53-81, C54,64S)], the “enhancement of penetration of labeled Synagis antibody (168 kD), 2.4 µM peptide” value was 2.5 fold; the “enhancement of penetration of labeled Synagis antibody (168 kD), 12 µM peptide” value came out at 3.2 fold; the “increase in FD-40 permeability, 12 µM peptide” value is 16.8 fold; the “increase in FITC-dextran 40 kDa (FD-40) permeability, 2.4 µM peptide” value was determined as 11.2 fold. Further, the “increase in fluorescein (0.4 kDa) permeability, 2.4 µM peptide” value worked out at 4.1 fold and the “increase in fluorescein permeability, 12 µM peptide” value was determined as 6.7 fold.
